This note sets out measurements from US20170009259A1 (SUMITOMO RUBBER INDUSTRIES, published 2017).

Sequences and labels used below:
B2: Nogo-B receptor (NgBr) from Hevea brasiliensis (receptor)
chain: MDLKPGAGGQRVNRLVDPISYHFLQFLWRTLHLLVSLWYLQVSMVQMIEGFLISSGLVKRYGALDIDKVRYLAIVVDSEEAYQISKVIQLLKWVEDMGVKHLCLYDSKGVLKTNKKTIMESLNNAMPFEEAVEKDVLLDQKQMTVEFASSSDGKEAITRAANVLFMKYLKYAKTGVGKEEPCFTEDQMDEALKAIGYKGPEPDLLLIYGPVRCHLGFSPWRLRYTEMVHMGPLRYMNLGSLKKAIHRFTTVQQNYGT
notes: In the yeast two-hybrid assay it was expressed from the pBT3-SUC bait vector (pBT-NgBr); also called pBT-NgBr

In experiment [1] the target is T1, Hevea rubber transferase 2 (HRT2), cis-prenyltransferase from Hevea brasiliensis (Hevea brasiliensis, UniProt Q8W3U4 1-284).
T1 construct: In the yeast two-hybrid assay it was expressed from the pPR3-N prey vector (pPR-HRT2) or the pBT3-SUC bait vector (pBT-HRT2); also called CPT; pPR-HRT2
T1 sequence: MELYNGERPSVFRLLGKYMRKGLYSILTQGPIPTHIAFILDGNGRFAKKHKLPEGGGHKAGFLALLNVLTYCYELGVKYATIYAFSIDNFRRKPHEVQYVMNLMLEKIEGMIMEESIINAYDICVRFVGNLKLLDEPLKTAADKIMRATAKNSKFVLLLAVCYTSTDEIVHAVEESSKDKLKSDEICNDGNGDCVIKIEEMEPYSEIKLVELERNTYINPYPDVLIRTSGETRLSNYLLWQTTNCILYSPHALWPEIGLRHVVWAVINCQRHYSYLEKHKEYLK
Briefly: yeast two-hybrid, pPR-HRT1 prey with pBT-HRT2 bait (pair No. 6), growth on Trp-, Leu-, Ade- and His-deficient SD medium. The procedure: (§1) The yeast strain NMY-51 was transformed with the collected plasmids. The PEG method was used for the double transformation of the yeast. The transformant cells were cultured at 30° C. for three days on Trp- and Leu-deficient SD medium for screening.
(§2) In this experiment, the yeast can grow on the selective medium only when a protein encoded by the gene introduced in the bait plasmid interacts with a protein encoded by the gene introduced in the prey plasmid.

Experiment [2] addresses B2. Briefly: yeast two-hybrid, pPR-HRT1 prey with pBT-NgBr bait (pair No. 5), growth on Trp-, Leu-, Ade- and His-deficient SD medium. The procedure: as §1, §2
In experiment [3] the target is T1, Hevea rubber transferase 2 (HRT2), …. Briefly: yeast two-hybrid, pPR-HRT2 prey with pBT-NgBr bait (pair No. 9), growth on Trp-, Leu-, Ade- and His-deficient SD medium. The procedure: as §1, §2

B1: Hevea rubber transferase 1 (HRT1), cis-prenyltransferase from Hevea brasiliensis (enzyme)
chain: MELYNGERPSVFRLLGKYMRKGLYSILTQGPIPTHIAFILDGNRRFAKKHKLPEGGGHKAGFLALLNVLTYCYELGVKYATIYAFSIDNFRRKPHEVQYVMDLMLEKIEGMIMEESIINAYDICVRFVGNLKLLSEPVKTAADKIMRATANNSKCVLLIAVCYTSTDEIVHAVEESSELNSNEVCNNQELEEANATGSGTVIQIENMESYSGIKLVDLEKNTYINPYPDVLIRTSGETRLSNYLLWQTTNCILYSPHALWPEIGLRHVVWAVINFQRHYSYLEKHKEYLK
notes: In the yeast two-hybrid assay it was expressed from the pPR3-N prey vector (pPR-HRT1) or the pBT3-SUC bait vector (pBT-HRT1); also called CPT; pPR-HRT1
For the molecule B1, the values for the binding result in experiment [1] and in experiment [2] were “no binding” and “binds”, respectively. B2: the binding result in experiment [3] is reported as “no binding”.
